From the nanobody polyreactivity screen of Harvey et al. (2022)

Experiment: yeast display, Sf9 membrane polyspecificity reagent, FACS + sequencing; frameworks hold sequencing errors
How it was run: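 After 36–48 hours of galactose induction, yeast (Saccharomyces cerevisiae BJ5465) displaying a synthetic nanobody library were stained at 4 °C for 1 hour with 10% biotinylated, detergent-solubilized Sf9 membrane reagent. Streptavidin microbeads enriched the stained cells before FACS sorting into low and high (top ~1%) gates on anti-HA and streptavidin fluorescence. Each clone's polyreactivity label reflects its gate of origin.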

Row | Sequence | polyreactivity (PSR sort gate)
1 | QVQLVESGGGLVQAGGSLRLSCAASGRILGRYAMGWYRQAPGKERELVAAISGSGTSTYYADSVKGRFTISRDNAKNTVYLQMNSLKPEDTAVYYCAAKWITRRGGDFDYWGQGTQVTVSS | high polyreactivity
2 | QVQLVESGGGLVQAGGSLRLSCAASGRILGVNAMGGYRQAPGKERELVAAINFSGGGTYYADSVKGRFTISRDNAKNTVYLQMNSLKPEDTAVYYCAAGYVTTWFRYDYWGWGQGTQVTVSS | low polyreactivity
3 | QVQLVESGGGLVQAGGSLRLSCAASGRILGYNARGWYRQAPGKEREFVATISKRTGSTRYADSVKGRFTISRDNAKNTVYLQMNSLKPEDTAVYYCAAYYGRFYGKYDYWGQGTQVTVSS | high polyreactivity
4 | QVQLVESGGGLVQAGGSLRLSCAASGRILHHYAMGWYIQAHGKERELVAAIRWGGGSTYYADSVKGRFTISRDNAKNTVYLQMNSLKPEDTAVYYCAAEVVAGYDYSQYYYWGQCTQVTVSS | low polyreactivity
5 | QVQLVESGGGLVQAGGSLRLSCAASGRILILNAMGWYRQAPGKERELVAAITNGGSTNYADSVKGRFTISRDNAKNSVYLQMNSLKPEDTAVYYCAARLYSYDYYTVLKLFDYWGQGTQVTVSS | low polyreactivity
6 | QVQLVESGGGLVQAGGSLRLSCAASGRILIPYAMGWYRQAPGKEREFVAGITGSGGRTYYADSVKGRFTISRDNAKNTVYLQMNSLKPEDTAVYYCAADYYYSPTMYYWGQGTQVTVSS | low polyreactivity
7 | QVQLVESGGGLVQAGGSLRLSCAASGRILIRKAMGRSRQAPGKERELVAAINRGGGSTYYADSVKGRFTISRDNAKNTVYLQMNSLKPEDTAVYYCAADRKAGYSRVDGDYWGQGTQVTVSS | low polyreactivity
8 | QVQLVESGGGLVQAGGSLRLSCAASGRILKRYAMGWYRQAPGKERELVAAINWSGGSTYYADSVKGRFTISRDNAKNTVYLQMTSLKPEDTAVYYCAADSWPFGYYYWGQGTQVTVSS | high polyreactivity
9 | QVQLVESGGGLVQAGGSLRLSCAASGRILKVYAMGGYRQAPGQERELVAAISVNGGRTYYADSVKGRFTISRDNAKNTVYLQMNSLKPEDTAVYYCAIRLYKPGNVFYSVDQSDYWGQGTQVTVSS | low polyreactivity
10 | QVQLVESGGGLVQAGGSLRLSCAASGRILLRNVMGLYRPAPGKERELVAVITRTGITYYADSVKGRFTISRDNAKNTVYLQMISLNPEDTAVYYCAAGLPTYEHDYWGQGTQVTVSS | low polyreactivity
11 | QVQLVESGGGLVQAGGSLRLSCAASGRILLSYAMGWYRQAPGKERELVAAISRSGVSTYYADSVKGRFTISRDNAKNTVYLQMNSLKPEDTAVYYCAAVRSSPGKSWDYNYWGQGTQVTVSS | high polyreactivity
12 | QVQLVESGGGLVQAGGSLRLSCAASGRILPFNAMGWYRQAPGKERELVAAIRWRGSSTYYADSVKGRFTISRDIAKNTVYLQMNSLKPEDTAVYYCAAPSSVRGKVISADYGYWGQGTQVTVSS | high polyreactivity
13 | QVQLVESGGGLVQAGGSLRLSCAASGRILPFNAMGWYRQAPGKERELVATITRRGGSTFYADSVKGRFTMSRDNAKNTVYLQMNSLKPEDTAVYYCAKTYWYVGSSRTYNYWGQGTQVTVSS | high polyreactivity
14 | QVQLVESGGGLVQAGGSLRLSCAASGRILPSNAMGWYRPAPGKERELVAGITSGGSTDYADSVKGRFTISRDNAKNTVYLQMNSLKPEDTAVYYCNKPFPYYPDGPNGYDYWGQGTQVTVSS | low polyreactivity
15 | QVQLVESGGGLVQAGGSLRLSCAASGRILQFYAMGWYRQAPGKERELVATIRVGGGSTYYADSVKGRFTISRDNAKNTVYLQMYSLKPEDTAVYYCAVRQLYSYPGDRRGYYWGQGTQVTVSS | low polyreactivity
16 | QVQLVESGGGLVQAGGSLRLSCAASGRILQGYAMGWYRQAPGKERELVASIRTGGTTNYADSVKGRFTISRDNAKNTVYLQMNSLKPEDTAVYYCNLGYYSYYGRYYYWGQGTQVTVSS | high polyreactivity
17 | QVQLVESGGGLVQAGGSLRLSCAASGRILQPNAMGWYRQAPGKERELVAGISRSGGGTYYADSVKWRFTISRDNAKNTVYLQMNTLKPEDTAVYYCAAYRYGYGYGYWGQGTQLTVSS | high polyreactivity
18 | QVQLVESGGGLVQAGGSLRLSCAASGRILRSYAMGWYRPAPGKERELVAAIRWRGGSTYYADSVKGRFTISRDNAKNTVYLQMNSLKPEDTAVYYCAARSYYRQSAGDYWGQGTQVTVSS | high polyreactivity
19 | QVQLVESGGGLVQAGGSLRLSCAASGRILRTYAMGWYRPAPGKERELVAAISRSGGSTYYADSVKGRFTISRDNAKNTVYLQMNSLKPEDTAVYYCNKAYGGRGYKYEYWGQGTQVTVSS | high polyreactivity
20 | QVQLVESGGGLVQAGGSLRLSCAASGRILSGNAMGWYRQAPGKERELVAAITNAGITKYADSVKGRFTISRDNAKNTVYLQMNSLKPEDTAVYYCATDRYAYKLYDYWGQGTQVTVSS | low polyreactivity
21 | QVQLVESGGGLVQAGGSLRLSCAASGRILSKNAMGWYRQAPGKERELVAAIRGSTGITYYADSVKGRFTISRDNAKNTVYLQMNSLKPEDTAVYYCAAVVQGGFYWGQGTQVTVSS | high polyreactivity
22 | QVQLVESGGGLVQAGGSLRLSCAASGRILSYYAMGWYRQAPGKERELVAVIRRGASTYADSVKGRFTISRDNAKNTVYLQMNSLKPEDTAVYYCNADRVVGLSATKYGYWGQGTQVTVSS | low polyreactivity
23 | QVQLVESGGGLVQAGGSLRLSCAASGRILTFNAMGGYRQAPVKERELVASISNGGSTIYADSVKGRFSISRDNAKNTVYLQMNSLKPEDTAVYYCAALNASQGTVTFYIFDYWGQGTQVTVSS | low polyreactivity
24 | QVQLVESGGGLVQAGGSLRLSCAASGRILTGYAMGWYRQAPGKARELVAAISNDTDSTHYADSVKGRFTISRDNAKNTVYLQMNSLKPEDTAVYYCATDAPLQKRWRRFDYWGQGTQVTVSS | low polyreactivity
25 | QVQLVESGGGLVQAGGSLRLSCAASGRILTGYAMGWYRQAPGKERELVAAISNDTDSTHYADSVKGRFTISRDNAKNTVYLQMNSLKPEDTAVYYCATDAPLQKRWRRFDYWGQGTQVTVSS | low polyreactivity
26 | QVQLVESGGGLVQAGGSLRLSCAASGRILTRNALGWYRQAPGKERELVAAISTSGGRTYYADSVKGRFTISRDNAKNTVYLEMNSLKPEDTAVYYCAAYSASYGGYDYWGQGTQVTVSS | high polyreactivity
27 | QVQLVESGGGLVQAGGSLRLSCAASGRILVDYAMGWYRQAPGKERELVAAITSTGGTTYYADSVKGRFTISRDNAKNTVYLQMNSLKPEDTAVYYCAAKRQDSWGGTYGYWGQGTQVTVSS | low polyreactivity
28 | QVQLVESGGGLVQAGGSLRLSCAASGRILVYYAMGWYRQATGKERELVAAITASGASTYYADSVKGRFTISRDNAKKTVYLQMNSLKPEDTAVYYCKVLYPRKYWQVREYYWGQGTQVTVSS | high polyreactivity
29 | QVQLVESGGGLVQAGGSLRLSCAASGRILWFYAMGWYRQAPGKERELVAAITDSGGSTYYADSVKGRFTISRDNAKNTVYLQMNSLKPEDTAVYYCAADTYYEFQYYVILEYNYWGQGTQVTVSS | low polyreactivity
30 | QVQLVESGGGLVQAGGSLRLSCAASGRILYLNDMGWYRQAPGKERELGAAITRRAGSTSYADSVKGRFTISRDNAKNTFYLQMNSLKPEDTAVYYCAKATSRRGFYYWGQGTQVTVSS | high polyreactivity
